Measured values published in the supplement of paper PMC10567573.

B1: TRIM35 (parent)
chain: WEVQVSPTCPVCKDRASPADLRTN
B2: NEUROD6 (parent)
chain: YHSPELTTPPGHGTLDNSKSMKPY

Variants of: B1
Assay: protein stability index of a GFP-peptide fusion (GPS, HEK-293T) (PSI 1-6); higher = more stable
Settings: c terminus: a fixed tail appended
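Also: lentivirally expressed fusions sorted by FACS into six bins by GFP to DsRed ratio, PSI derived from sequencing read proportions per bin multiplied by bin number.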

Protein stability index: each site, then its substitutions
P10: R 2.42 | N 2.58 | C 3.25 | Y 2.29 | I 2.34 | L 2.65 | W 2.51
E2: A 2.48 | P 2.12 | W 1.68 | S 2.58 | N 2.3 | V 2.21 | K 2.42 | F 1.72
Q4: R 1.9 | A 1.73 | K 2.07 | P 3.58 | V 2 | L 2.08 | N 2.73 | S 1.87 | C 2.2 | T 2.36
S6: W 1.94 | C 2.63 | F 2.4 | K 1.85 | T 2.22 | D 2.84 | R 2.5 | I 2.12 | Q 2.53 | N 3.46 | Y 2.07 | A 1.87
C9: M 3.15 | Y 3.5 | I 3.53 | E 4.49 | G 3.97 | H 3.74 | L 1.98 | K 4.72 | Q 4.56 | A 4.38 | T 3.94 | R 4.04
K13: C 1.72 | I 2.17 | V 2.7 | S 2.19 | Q 2.66 | G 1.7 | W 2.09 | T 2.31 | F 1.94 | N 2.39 | E 2.71 | M 1.94
A16: I 1.28 | G 2.15 | F 1.91 | L 1.82 | E 2.78 | S 2.42 | T 2.79 | D 2.26 | W 1.85 | V 2.49
L21: W 2.62 | I 2.59 | Q 2.5 | H 2.54 | T 2.62 | E 2.98 | A 3.04 | Y 2.57 | S 2.58 | R 2.37
C12: L 3.8 | K 3.88 | E 4.81 | A 4.59 | M 4.44 | T 4.54
S17: P 2.83 | D 3.31 | C 1.81 | T 2.05 | A 2.48 | Y 4.01 | Q 2.84 | W 3.4 | H 2.08 | I 2.66
V5: H 2.97 | P 1.68 | W 2.4 | T 3.03 | A 2.15 | K 2.98 | Q 3.37 | M 2.41 | I 2.27 | G 2.48
V11: I 2.24 | T 3.14 | D 3.64 | S 1.79 | M 1.23 | N 2.9 | R 2.93 | P 3.86 | G 2.89 | Y 1.51
V3: A 3.31 | C 2.11 | R 2.31 | Y 3.35 | N 3.38 | H 3.16 | D 3.35 | Q 2.96 | S 3.38 | W 2.8 | P 2.49
W1: S 2.6 | Q 3.1 | I 2.08 | P 3.29 | E 3.52 | L 3.13 | G 2.92 | R 3.66 | D 3.25
D20: M 1.71 | S 1.68 | I 1.47 | P 1.85 | A 2.02 | N 2.2 | V 1.97 | C 1.91 | G 1.85
N24: Y 1.6 | S 2.57 | I 1.7 | L 1.71 | Q 2.81 | F 1.55 | C 2.43 | K 3.12 | H 1.42 | E 2.29
P18: G 2.51 | Q 2.13 | V 2.57 | M 1.99 | N 2.39 | D 1.99 | Y 2.15 | W 1.39 | T 2.57 | S 2.51
T8: W 2.56 | R 1.7 | P 2.92 | L 1.88 | G 2.48 | S 2.37 | V 1.66 | Q 2.33 | F 1.85 | A 3.17
R15: Q 2.54 | H 2.46 | E 3.43 | S 3.07 | C 2.26 | F 2.07 | T 2.54 | M 2.04
T23: F 1.82 | H 2.93 | K 3.12 | E 2.83 | Q 2.58 | C 2.13 | S 2.26 | Y 1.73
D14: K 2.54 | Y 1.62 | W 2.71 | P 1.9 | S 2.5 | L 2.62 | C 1.03 | F 2.81 | E 2.75 | A 2.49
R22: F 2.22 | C 2.91 | E 4.1 | S 2.91 | T 2.91
A19: T 1.75 | N 1.91 | Y 1.77 | K 2.96 | M 2.42 | H 2.24 | L 2.12 | E 3.35 | I 2.05
P7: V 1.32 | D 2.43 | S 2.5 | G 3.03 | L 1.9 | A 1.72

Variants of: B2
Assay: as above
Settings: c terminus: a fixed tail appended

Protein stability index, by site and new letter:
M21: Y 1.54 | D 2.39 | R 2.23 | E 2.35 | C 2.42 | F 2.18 | W 2.14 | G 2.71 | Q 2.32 | S 2.18 | K 2.36 | H 2.56 | I 2.84 | T 2.67 | P 2.62 | L 2.44 | V 2.42 | N 2.82 | A 2.16
Y24: W 1.98 | E 2.91 | L 2.27 | G 2.67 | S 2.36 | F 2.21 | K 2.23 | V 2.41 | N 2.44 | C 2.38 | A 2.24 | H 2.45 | M 2.02 | R 2.48 | Q 2.62 | T 2.55 | D 2.44 | I 2.21
K19: G 2.21 | S 2.17 | I 2.33 | E 2.59 | M 2.37 | D 2.85 | W 1.5 | N 2.44 | V 2.39 | L 1.96 | T 2.35 | Q 2.24 | F 1.85 | C 2.05 | P 2.22 | R 1.92 | Y 1.9 | H 2.07
P23: Q 2.08 | M 1.98 | W 2.67 | A 2.36 | S 1.9 | E 2.41 | C 1.87 | D 2.28 | I 1.69 | H 2.24 | V 2.18 | F 2.33 | Y 1.77 | N 2.36 | K 2.33 | G 2.23 | L 2.44 | T 1.77 | R 1.99
K22: L 2.2 | E 2.46 | M 2.15 | G 1.75 | R 2.47 | S 2.26 | P 1.82 | N 2.14 | H 1.87 | A 2.56 | I 2.41 | Y 1.83 | Q 2.15 | D 2.55 | V 2.06 | T 2.32 | W 2.32 | F 2.25 | C 1.81
S20: Q 2.48 | R 1.4 | M 2.43 | N 2.33 | E 2.54 | G 2.28 | T 2.87 | V 1.92 | I 1.7 | A 2.04 | P 2.3 | L 1.79 | Y 2.23 | W 1.97 | H 1.87 | D 2.28 | F 1.9 | C 1.86 | K 1.94
